# Measured values as given in article doi:10.1101/2025.04.30.25326597.
# B1: BORCS7 (natural protein)
# chain: MMATGTPESQARFGQSVKGLLTEKVTTCGTDVIALTKQVLKGSRSSELLGQAARNMVLQEDAILHSEDSLRKMAIITTHLQYQQEAIQKNVEQSSDLQDQLNHLLK
# Biological target: BORCS5 L128Vfs*86, C-terminally GFP-tagged (human) (UniProt Q969J3)
# Assay: co-IP; GFP-Trap agarose precipitation of C-terminally GFP-tagged BORCS5 constructs from lysates of transfected cells 24 h after transfection (10 mM Tris-Cl pH 7.5, 150 mM NaCl, 0.5 mM EDTA, 1% Triton X-100, 10% glycerol), 2 h at 4°C, five washes; endogenous SNAPIN and BORCS7 detected by immunoblotting; GFP alone as control
binder,measurement,value
B1,percent less co-immunoprecipitated than with WT,30%
